{"source": "paper doi:10.1101/2023.06.22.546118", "about": "(bioRxiv, 2023)", "binders": {"B1": {"name": "NEC185Δ50-SUP_(UL31) heterodimer (UL31 51-306 R229L with UL34 15-185) (complex)", "chain 1": "QELCLHERQRYRGLFAALAQTPSEEIAIVRSLSVPLVKTTPVSLPFCLDQTVADNCLTLSGMGYYLGIGGCCPACNAGDGRFAATSREALILAFVQQINTIFEHRAFLASLVVLADRHNAPLQDLLAGILGQPELFFVHTILRGGGACDPRLLFYPDPTYGGHMLYVIFPGTSAHLHYLLIDRMLTACPGYRFVAHVWQSTFVLVVRRNAEKPTDAEIPTVSAADIYCKMRDISFDGGLMLEYQRLYATFDEFPPP", "chain 2": "AFEGLVQRIRLIVPSTLRGGDGEAGPYSPSSLPSRCAFQFHGHDGSDESFPIEYVLRLMNDWAEVPCNPYLRIQNTGVSVLFQGFFHRPHNAPGGAITPERTNVILGSTETTGLSLGDLDTIKGRLGLDARPMMASMWISCFVRMPRVQLAFRFMGPEDAGRTRRILCRAA"}, "B2": {"name": "HSV-1 UL31 residues 51-306 with R229L (SUP_UL31), crystallization construct (domain or fragment)", "chain": "B1 chain 1"}, "B3": {"name": "NEC185Δ50-DN_(UL34)/SUP_(UL31) heterodimer (UL31 51-306 R229L with UL34 15-185 D35A/E37A) (complex)", "chain 1": "B1 chain 1", "chain 2": "B1 chain 2 with D21A, E23A"}, "B4": {"name": "HSV-1 UL34 residues 1-220 with D35A/E37A (DN_UL34) (domain or fragment)", "chain": "MAGLGKPYTGHPGDAFEGLVQRIRLIVPSTLRGGAGAAGPYSPSSLPSRCAFQFHGHDGSDESFPIEYVLRLMNDWAEVPCNPYLRIQNTGVSVLFQGFFHRPHNAPGGAITPERTNVILGSTETTGLSLGDLDTIKGRLGLDARPMMASMWISCFVRMPRVQLAFRFMGPEDAGRTRRILCRAAEQAITRRRRTRRSREAYGAEAGLGVAGTGFRARGD"}, "B5": {"name": "NEC220-DN_(UL34)/SUP_(UL31) (UL31 1-306 R229L with UL34 1-220 D35A/E37A) (complex)", "chain 1": "MYDTDPHRRGSRPGPYHGKERRRSRSSAAGGTLGVVRRASRKSLPPHARKQELCLHERQRYRGLFAALAQTPSEEIAIVRSLSVPLVKTTPVSLPFCLDQTVADNCLTLSGMGYYLGIGGCCPACNAGDGRFAATSREALILAFVQQINTIFEHRAFLASLVVLADRHNAPLQDLLAGILGQPELFFVHTILRGGGACDPRLLFYPDPTYGGHMLYVIFPGTSAHLHYLLIDRMLTACPGYRFVAHVWQSTFVLVVRRNAEKPTDAEIPTVSAADIYCKMRDISFDGGLMLEYQRLYATFDEFPPP", "chain 2": "B4 chain"}, "B6": {"name": "NEC220, wild-type soluble HSV-1 nuclear egress complex (UL31 1-306 with UL34 1-220) (complex)", "chain 1": "B5 chain 1 with L229R", "chain 2": "B4 chain with A35D, A37E"}, "B7": {"name": "NEC220-SUP_(UL31) (UL31 1-306 R229L with UL34 1-220) (complex)", "chain 1": "B5 chain 1", "chain 2": "B4 chain with A35D, A37E"}, "B8": {"name": "HSV-1 UL34 residues 1-220 with R139A (domain or fragment)", "chain": "B4 chain with A35D, A37E, R139A"}, "B9": {"name": "HSV-1 UL34 residues 1-220 with K137A (domain or fragment)", "chain": "B4 chain with A35D, A37E, K137A"}, "B10": {"name": "HSV-1 UL34 residues 1-220 with K137A/R139A (domain or fragment)", "chain": "B4 chain with A35D, A37E, K137A, R139A"}, "B11": {"name": "HSV-1 UL34 residues 1-220, wild type (domain or fragment)", "chain": "B4 chain with A35D, A37E"}}, "key": {"crystal structure": {"target": "the molecule itself", "assay": "crystal structure"}, "[1]": {"target": "T1, HSV-1 UL31 full length (1-306) with R229L (SUP_UL31) (herpes simplex virus 1 (HSV-1), UniProt P10215 1-306, R229L)", "T1 sequence": "B5 chain 1", "assay": "cryo-EM structure"}, "cryo-EM structure": {"target": "the molecule itself", "assay": "cryo-EM structure"}, "[2]": {"target": "T2, HSV-1 UL31 full length (1-306), wild type (herpes simplex virus 1 (HSV-1), UniProt P10215 1-306)", "T2 sequence": "B5 chain 1 with L229R", "assay": "SEC"}, "[3]": {"target": "T1, HSV-1 UL31 full length (1-306) with …", "assay": "SEC"}, "[4]": {"target": "T2, HSV-1 UL31 full length (1-306), wild …", "assay": "cryo-EM structure"}}, "note": "Residue numbers refer to the chain shown, from its start. Names and notes keep the numbering of the source."}
{"binder": "B1", "values": [{"measurement": "stoichiometry N", "setting": "crystal structure", "result": 6}]}
{"binder": "B2", "values": [{"measurement": "binding result", "setting": "crystal structure", "result": "binds"}]}
{"binder": "B3", "values": [{"measurement": "binding result", "setting": "crystal structure", "result": "binds"}]}
{"binder": "B4", "values": [{"measurement": "binding result", "setting": "[1]", "result": "binds"}]}
{"binder": "B5", "values": [{"measurement": "binding result", "setting": "cryo-EM structure", "result": "binds"}]}
{"binder": "B6", "values": [{"measurement": "binding result", "setting": "cryo-EM structure", "result": "binds"}]}
{"binder": "B7", "values": [{"measurement": "binding result", "setting": "cryo-EM structure", "result": "binds"}]}
{"binder": "B8", "values": [{"measurement": "binding result", "setting": "[2]", "result": "binds"}]}
{"binder": "B9", "values": [{"measurement": "binding result", "setting": "[2]", "result": "binds"}, {"measurement": "binding result", "setting": "[3]", "result": "binds"}]}
{"binder": "B10", "values": [{"measurement": "binding result", "setting": "[2]", "result": "binds"}, {"measurement": "binding result", "setting": "[3]", "result": "binds"}]}
{"binder": "B11", "values": [{"measurement": "binding result", "setting": "[4]", "result": "binds"}]}
